{"source": "paper PMC12470901", "about": "“Bioelectrocatalyst for O2 Reduction Based on a Novel Recombinant Two-Domain Laccase from Streptomyces ochraceisleroticus Immobilized on Naphthyl-Modified MWCNTs” (International Journal of Molecular Sciences, 2025)", "key": {"SoSL (Ac-651)": {"target": "T1, SoSL (Ac-651) (Streptomyces ochraceiscleroticus, UniProt A0ABW1MU60)", "T1 construct": "gene ACFP4F_27515", "T1 sequence (A0ABW1MU60 37-329)": "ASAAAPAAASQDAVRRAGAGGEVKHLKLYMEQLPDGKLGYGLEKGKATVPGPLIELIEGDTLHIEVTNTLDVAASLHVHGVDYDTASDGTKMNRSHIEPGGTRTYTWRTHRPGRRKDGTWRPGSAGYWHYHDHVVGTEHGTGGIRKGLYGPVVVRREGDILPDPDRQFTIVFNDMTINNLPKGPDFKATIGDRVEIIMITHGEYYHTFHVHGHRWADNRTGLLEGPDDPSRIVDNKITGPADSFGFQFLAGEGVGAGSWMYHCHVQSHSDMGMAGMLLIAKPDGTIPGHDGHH", "conditions": "pH 3.7; inhibitor"}, "purified protein [1]": {"substrate": "CCn1c(=NN=c2sc3cc(S(=O)(=O)O)ccc3n2CC)sc2cc(S(=O)(=O)O)ccc21", "experiment": "purified protein", "assay_type": "biochemical, Streptomyces ochraceiscleroticus", "conditions": "pH 3.5, 30 °C, 50 mM Britton–Robinson buffer, free enzyme (b72 lists the two pH values in reversed order)"}, "purified protein [2]": {"substrate": "COc1cccc(OC)c1O", "experiment": "purified protein", "assay_type": "biochemical, Streptomyces ochraceiscleroticus", "conditions": "pH 9.0, 30 °C, 50 mM Britton–Robinson buffer, free enzyme (b72 lists the two pH values in reversed order)"}}}
{"molecule": "F", "note": "[sodium fluoride]", "values": [{"measurement": "10 mM", "setting": "SoSL (Ac-651)", "result": "67.8 ± 0.6", "unit": "%"}]}
{"molecule": "SoSL (Ac-651) (Streptomyces ochraceiscleroticus) (protein, TAT signal peptide removed (lacks 36 N-terminal residues of 329), pQE-30 His-tag, E. coli M15 [pREP4], Ni-sepharose; 33 kDa computed, ~35 kDa SDS-PAGE; trimeric) ASAAAPAAASQDAVRRAGAGGEVKHLKLYMEQLPDGKLGYGLEKGKATVPGPLIELIEGDTLHIEVTNTLDVAASLHVHGVDYDTASDGTKMNRSHIEPGGTRTYTWRTHRPGRRKDGTWRPGSAGYWHYHDHVVGTEHGTGGIRKGLYGPVVVRREGDILPDPDRQFTIVFNDMTINNLPKGPDFKATIGDRVEIIMITHGEYYHTFHVHGHRWADNRTGLLEGPDDPSRIVDNKITGPADSFGFQFLAGEGVGAGSWMYHCHVQSHSDMGMAGMLLIAKPDGTIPGHDGHH", "values": [{"measurement": "Km", "setting": "purified protein [1]", "result": 50, "unit": "µM"}, {"measurement": "kcat", "setting": "purified protein [1]", "result": 106, "unit": "s⁻¹"}, {"measurement": "Km", "setting": "purified protein [2]", "result": 760, "unit": "µM"}, {"measurement": "kcat", "setting": "purified protein [2]", "result": 0.11, "unit": "s⁻¹"}]}
